Measurements: patent US20230058519A1 (SHANGHAI CELL THERAPY GROUP, published 2023)

How the values were obtained:
[1] = target: T1, BCMA-His antigen (UniProt Q02223 1-54); experiment: SPR as in Example 2, BCMA-His antigen
T1 construct: also called BMCA antigen
T1 sequence (looked up): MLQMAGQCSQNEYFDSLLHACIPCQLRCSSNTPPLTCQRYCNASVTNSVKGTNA

[2] = target: T2, BCMA expressed on cells (UniProt Q02223 1-184, limits assumed); experiment: flow cytometry on CHOK1-BCMA cells; unit taken from the axis 'Concentration (nM)'
T2 construct: whole, on cells; also called CHOK1-BCMA cell line; BCMA over-expression cell line
T2 sequence (looked up): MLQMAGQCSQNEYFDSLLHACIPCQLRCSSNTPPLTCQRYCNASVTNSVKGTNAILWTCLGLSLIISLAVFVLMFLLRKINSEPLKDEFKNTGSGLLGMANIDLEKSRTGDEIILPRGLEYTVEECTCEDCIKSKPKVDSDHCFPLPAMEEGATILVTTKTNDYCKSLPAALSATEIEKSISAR

[3] = target: EGFR His antigen (UniProt P00533 25-645); experiment: SPR as in Example 2, EGFR His antigen
[4] = target: T3, EGFR expressed on cells (UniProt P00533 25-1210, limits assumed); experiment: flow cytometry on HEK293T-EGFR cells (cell line from paragraph 185); unit taken from the axis 'Concentration (nM)'
T3 construct: whole, on cells; also called HEK293T-EGFR cell line; EGFR over-expressing cells

[5] = target: T3, EGFR expressed on cells; experiment: flow cytometry on 293T-EGFR cells; unit taken from the axis 'Conc.(nM)'
[6] = target: mesothelin (MSLN) expressed on cells (UniProt Q13421); experiment: flow cytometry on 293T-MSLN-Full cells; unit taken from the axis 'Conc.(nM)'
Sequence of mesothelin (MSLN) expressed on cells (Q13421 other isoform, or with tags, fused parts or gaps limits assumed): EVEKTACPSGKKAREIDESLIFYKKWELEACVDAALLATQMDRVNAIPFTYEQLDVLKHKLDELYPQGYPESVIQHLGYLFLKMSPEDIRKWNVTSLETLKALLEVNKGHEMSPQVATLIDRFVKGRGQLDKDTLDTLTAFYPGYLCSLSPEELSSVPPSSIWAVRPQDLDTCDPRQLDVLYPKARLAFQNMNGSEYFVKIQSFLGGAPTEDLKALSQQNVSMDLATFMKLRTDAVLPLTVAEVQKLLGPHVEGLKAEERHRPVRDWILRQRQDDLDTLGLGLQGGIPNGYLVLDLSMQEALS

B1: B029(VHH), hFc fusion (Fc fusion)
chain: QVQLVESGGGLVQPGGSLRLSCAASGSITSIYAIGWYRQAPGKLRELVAAITTSGNTFYRDSVKGRFTISRDNAKNTVSLQMNSLKSEDTAVYDCNGAPWGDHAPLVVSWDQGTQVTVSS
notes: not shown: human Fc
Kd [1]: 0.125 nM | koff [1]: 0.000365 s⁻¹ | kon [1]: 2.92e+06 M⁻¹ s⁻¹ | EC50 [2]: 1.68 nM

B2: E454(VHH), hFc fusion (Fc fusion)
chain: QVQLVESGGGLVQPGGSLNLSCAASGFDFSSVTMSWHRQSPGKERETVAVISNIGNRNVGSSVRGRFTISRDNKKQTVHLQMDNLKPEDTGIYRCKAWGLDLWGPGTQVTVSS
notes: also called anti-EGFR VHH (E454(VHH)); not shown: human Fc
Kd [3]: 1.27 nM | koff [3]: 2.48e-05 s⁻¹ | kon [3]: 19500 M⁻¹ s⁻¹ | EC50 [4]: 6.51 nM

B3: TCP021-P (bispecific antibody)
chain: QLQLGASGGGLVQPGGSLRLSCALSGFTLRELDEFAIGWFRQAPGKEREGVSCISGTGGITHYADSVKGRFTISRDIAKTTVYLQMNSLNSEDTAVYYCAADERCTDRLIRPPTYWGQGTQVTVSSGGGGSGGGGSGGGGSQVQLVESGGGLVQPGGSLNLSCAASGFDFSSVTMSWHRQSPGKERETVAVISNIGNRNVGSSVRGRFTISRDNKKQTVHLQMDNLKPEDTGIYRCKAWGLDLWGPGTQVTVSSGGGGSEQKLISEEDLGGGGSHHHHHH
notes: also called EGFR-TCP; anti-M-ICAP VHH (M2339) - 3xGGGGS linker - anti-EGFR VHH (E454(VHH)) - Myc and HIS
EC50 [5]: 28.6 nM | EC50 [6]: 35.6 nM
